Reference: paper PMC3585288, “Interactions of Archaeal Chromatin Proteins Alba1 and Alba2 with Nucleic Acids” (PLoS ONE, 2013)

T1: Alba1 (Ape10b1) (Aeropyrum pernix, UniProt Q9YAW1 1-94)
T1 sequence: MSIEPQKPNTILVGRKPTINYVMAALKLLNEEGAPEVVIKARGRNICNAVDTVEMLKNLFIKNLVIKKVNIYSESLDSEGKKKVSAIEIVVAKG

T2: Alba1 (Ape10b1);Alba2 (Ape10b2) (Aeropyrum pernix;Aeropyrum pernix, UniProt Q9YAW1;Q9YAX2 1-94;1-102, |)
T2 sequence 1: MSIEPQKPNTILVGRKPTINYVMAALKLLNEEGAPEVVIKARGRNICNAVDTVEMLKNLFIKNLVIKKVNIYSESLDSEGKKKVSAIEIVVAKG
T2 sequence 2: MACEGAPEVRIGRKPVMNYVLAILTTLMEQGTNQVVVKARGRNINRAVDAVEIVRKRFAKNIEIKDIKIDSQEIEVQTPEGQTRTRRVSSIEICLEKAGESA

T3: Alba2 (Ape10b2) (Aeropyrum pernix, UniProt Q9YAX2 1-102)
T3 sequence: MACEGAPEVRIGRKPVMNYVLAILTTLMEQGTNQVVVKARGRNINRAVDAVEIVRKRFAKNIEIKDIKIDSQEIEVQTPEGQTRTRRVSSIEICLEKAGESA


Legend:
[1] = molecular target: the molecule itself; assay: native gel or EMSA; native protein PAGE, 20% acrylamide homogeneous gel, PhastSystem, acidic buffer agarose strips, proteins migrating towards the negative electrode; equinatoxin II (19.82 kDa) as size reference
Alba1 (Ape10b1) = molecular target: T1, Alba1 (Ape10b1); assay: SPR; 6.0 uM protein; saturable, fast association; ITC: 50 mM NaH2PO4, pH 7.0, 25 C; SPR: 50 mM NaH2PO4, 150 mM NaCl, 0.005% P20, pH 7.0, 25 C; UV melting: 50 mM NaH2PO4, pH 7.0; EMSA: 0.8% agarose, 1 h at room; conditions: protein: recombinant; tags: His-tag (pQE-30UA); chain copies: 2; label: 5'-biotin on one strand (S1); blunt
[2] = molecular target: T2, Alba1 (Ape10b1);Alba2 (Ape10b2); assay: SPR; 6.0 uM equimolar complex; biphasic; ITC: 50 mM NaH2PO4, pH 7.0, 25 C; SPR: 50 mM NaH2PO4, 150 mM NaCl, 0.005% P20, pH 7.0, 25 C; UV melting: 50 mM NaH2PO4, pH 7.0; EMSA: 0.8% agarose, 1 h at room; conditions: protein: recombinant;recombinant; tags: His-tag (pQE-30UA); copies: 1;1; label: 5'-biotin on one strand (S1); blunt
Alba2 (Ape10b2) = molecular target: T3, Alba2 (Ape10b2); assay: SPR; 6.0 uM protein; slower association and dissociation; ITC: 50 mM NaH2PO4, pH 7.0, 25 C; SPR: 50 mM NaH2PO4, 150 mM NaCl, 0.005% P20, pH 7.0, 25 C; UV melting: 50 mM NaH2PO4, pH 7.0; EMSA: 0.8% agarose, 1 h at room; conditions: protein: recombinant; tags: His-tag (pETDuet-1); chain copies: 2; label: 5'-biotin on one strand (S1); blunt

Binder | stoichiometry N [1] | binding result (Alba1 (Ape10b1)) | binding result [2] | binding result (Alba2 (Ape10b2))
Alba1 protein from Aeropyrum pernix (APE1832.1) (natural protein, UniProt Q9YAW1 1-94, looked up, Alba1 (Ape10b1), Aeropyrum pernix, locus APE1832.1; 94 amino-acid residues (10,336 Da); His-tag is removable by thrombin; also called Ape10b1; APA1) MSIEPQKPNTILVGRKPTINYVMAALKLLNEEGAPEVVIKARGRNICNAVDTVEMLKNLFIKNLVIKKVNIYSESLDSEGKKKVSAIEIVVAKG | 2 |  |  | 
Alba2 protein from Aeropyrum pernix (APE1823) (natural protein, Alba2 (Ape10b2), Aeropyrum pernix, locus APE1823; 102 amino-acid residues (11,380 Da); His-tag is removable by thrombin; Co-expression with untagged Alba1 may leave Alba1 in the Alba2 preparation (my surmise); also called Ape10b2; APA2) MACEGAPEVRIGRKPVMNYVLAILTTLMEQGTNQVVVKARGRNINRAVDAVEIVRKRFAKNIEIKDIKIDSQEIEVQTPEGQTRTRRVSSIEICLEKAGESA | 2 |  |  | 
SPRspecAP (dsDNA) DNA 1: CCCCCCCGTGAAAGCCTAGACAGCGAGGCCCCCCC DNA 2: GGGGGGGCCTCGCTGTCTAGGCTTTCACGGGGGGG |  | binds | binds | binds
